Assay results taken from patent publication US11932673.
Residue numbers refer to the chain shown, from its start.

B1: KB_A12_B-gal_F07 (scFv, V domains shown)
VH: EVQLVESGGGLVRPGGSLRLSCAASGFTFSSYAMSWVRQAPGKGLEWVSAISGSGGSTYYADSVKGRFTISRDNTKNSLYLQMTSLRADDTAFYYCVKDFGPGYGTGWFDYWGPGTLVTVSS
VL: AVNWYQQLPGKAPKLLIYAAGRCRTTANVRRHCKQDSDCLAGCVCGPNGFCGANSGVSDRFSAAKSGTSASLAINGLRSEDEADYYCAAWDDSLNGYVFGTGTKLTVLG
B2: F03 (KnotBody with EET 5-3 framing) (scFv, V domains shown)
VH: B1 VH
VL: AVNWYQQLPGRAPKLLIYAAGGCGPNGFCGSGGDGGVCPRILMRCKQDSDCLAGCGAHSGIPERFSGSKSGTSASLAISGLRSEDEADYYCAAWDDSLNGWVFGGGTKVTVLG
B3: C09 (KnotBody with EET 5-3 framing) (scFv, V domains shown)
VH: B1 VH
VL: SEAPRQRVTITCGGKRCGPNGFCGSGSDGGVCPRILMRCKQDSDCLAGCTSNWYQQKPGQAPVLVVQDDSVRPSGIPERFSGSNSGNTATLTISRVEAGDGADYYCQVWDISSDLGVFGGGTKLTVLG
B4: G11 (KnotBody with EET 5-3 framing) (scFv, V domains shown)
VH: B1 VH
VL: AVNWYQQLPGKAPKLLIYAAGGCGPNGFCGSGSDGGVCPRILMRCKQDSDCLAGCGQSSGVSDRFSGSKSGTSATLDITGLQTGDEADYYCGTWDNSLSVGVFGGGTKVTVLG
B5: F01 (KnotBody with EET 5-3 framing) (scFv, V domains shown)
VH: B1 VH
VL: YLNWYQQKPGKAPKLLIDAAGECGPNGFCGSGSDGGVCPRINMRCKQDSDCLAGCGRDSGVPSRFSGSGSGTDFTLTISSLQPEDFATYYCQQSYSTPWTFGQGTKVEIKR
B6: E01 (KnotBody with EET 5-3 framing) (scFv, V domains shown)
VH: B1 VH
VL: AVNWYQQLPGKAPKLLIYAAGGCGPNGFCGSGSDGGVCPRILMRCKQDSDCLAGCGIHSGVSDRFSDSKSGTSASLAISGLQSEDEADYYCAAWDDSLNGYVFGTGTKLTVLG
B7: E08 (KnotBody with EET 5-3 framing) (scFv, V domains shown)
VH: B1 VH
VL: B6 VL with H58Q, V61I, S62P, D63E, D67G, Q82R, S97N, N99S
B8: F07 (KnotBody with EET 5-3 framing) (scFv, V domains shown)
VH: B1 VH
VL: B6 VL with I57G, H58Q, S62P, D67G, G80R, G100A, L109V
B9: E09 (KnotBody with EET 5-3 framing) (scFv, V domains shown)
VH: B1 VH
VL: B6 VL with I57T, H58Q, V61I, S62P, D63E, D67G, Q82R, N99R, G100A, K108Q
B10: E03 (KnotBody with EET 5-3 framing) (scFv, V domains shown)
VH: B1 VH
VL: AVNWYQQLPGKAPKLLIYAAGGCGPNGFCGSGSDGGVCPRILMRCKQDSDCLAGCGRNSGIPERFSGSKSGHTATLTISRVEAGDEADYYCQVWDSSSDHVLFGGGTKLTVLG
B11: E05 (KnotBody with EET 5-3 framing) (scFv, V domains shown)
VH: B1 VH
VL: B2 VL with R11K, G33S, H58Q, R82Q, D88H, W101Y, G105T

Target: β-galactosidase
Assay: monoclonal phage TRF

Sequence of β-galactosidase (P00722 2-1024): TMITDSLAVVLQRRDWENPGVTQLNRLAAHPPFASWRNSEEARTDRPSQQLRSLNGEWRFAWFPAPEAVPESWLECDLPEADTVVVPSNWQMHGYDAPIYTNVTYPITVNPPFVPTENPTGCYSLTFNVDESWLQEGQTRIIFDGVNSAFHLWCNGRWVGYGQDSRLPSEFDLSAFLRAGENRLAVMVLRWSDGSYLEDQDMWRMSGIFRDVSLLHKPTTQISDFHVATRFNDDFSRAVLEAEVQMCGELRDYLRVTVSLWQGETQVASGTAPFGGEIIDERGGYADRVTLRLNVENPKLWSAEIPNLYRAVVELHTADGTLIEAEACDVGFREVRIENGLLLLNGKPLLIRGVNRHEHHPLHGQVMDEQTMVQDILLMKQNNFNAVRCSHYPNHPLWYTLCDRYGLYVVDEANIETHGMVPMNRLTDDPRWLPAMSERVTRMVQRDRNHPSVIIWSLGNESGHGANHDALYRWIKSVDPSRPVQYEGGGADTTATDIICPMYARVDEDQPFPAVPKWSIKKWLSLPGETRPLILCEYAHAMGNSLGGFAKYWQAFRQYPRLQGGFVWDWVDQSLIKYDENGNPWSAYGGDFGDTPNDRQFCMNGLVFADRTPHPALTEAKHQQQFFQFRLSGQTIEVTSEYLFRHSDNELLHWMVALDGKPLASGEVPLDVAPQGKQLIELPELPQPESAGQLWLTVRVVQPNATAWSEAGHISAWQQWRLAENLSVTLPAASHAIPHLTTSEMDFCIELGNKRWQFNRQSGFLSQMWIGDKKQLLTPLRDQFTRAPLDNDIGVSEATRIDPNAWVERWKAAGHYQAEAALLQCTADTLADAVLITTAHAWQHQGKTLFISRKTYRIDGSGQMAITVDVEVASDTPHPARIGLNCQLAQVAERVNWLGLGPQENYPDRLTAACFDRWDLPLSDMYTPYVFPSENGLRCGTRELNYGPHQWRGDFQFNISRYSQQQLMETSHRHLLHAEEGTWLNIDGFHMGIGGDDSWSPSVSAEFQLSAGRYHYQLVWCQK

Work on B1 yielded a TRF signal of 246000.

Target: trypsin
Assay: monoclonal phage ELISA

Point of comparison: B3, ELISA signal 9820. Against it:
- B2 — higher, 68000
- B4 — higher, 27600
- B5 — higher, 102000
- B6 — higher, 128000
- B7 — higher, 121000
- B8 — higher, 72800
- B9 — higher, 70300
- B10 — higher, 82500
- B11 — higher, 119000
